From the supplement of paper PMC9112550, “Optimization of the antimicrobial peptide Bac7 by deep mutational scanning” (BMC Biology, 2022)

Test system: Escherichia coli TOP10
Experiment: shrunken log2 fold change of peptide-encoding DNA abundance (4.5 h post-induction vs induction); higher = less antimicrobial activity (less host growth inhibition)
Conditions: time post-induction: 4.5 h; library: site-saturation at positions 5, 18, 19, 20
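Further: peptides expressed intracellularly from a pBAD plasmid library in pooled LB shake-flask culture, induced with 0.3% L-arabinose, DNA abundance read by NGS, three biological replicates, DESeq2 with apeglm shrinkage.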

| Sequence | shrunken log2 fold change |
| --- | --- |
| RRIRKRPPRLPRPRPRPGIWPRP | 0.362 |
| RRIRMRPPRLPRPRPRPLPDPRP | 2.49 |
| RRIRERPPRLPRPRPRPQAEPRP | -0.0297 |
| RRIRFRPPRLPRPRPRPCAYPRP | 2.21 |
| RRIRTRPPRLPRPRPRPSKWPRP | -0.0672 |
| RRIRCRPPRLPRPRPRPVNRPRP | -0.0405 |
| RRIRRRPPRLPRPRPRPGGIPRP | 0.0225 |
| RRIRTRPPRLPRPRPRPHPIPRP | -0.165 |
| RRIRVRPPRLPRPRPRPHTTPRP | -0.26 |
| RRIRARPPRLPRPRPRPIDDPRP | 0.178 |
| RRIRTRPPRLPRPRPRPTRCPRP | -0.104 |
| RRIRLRPPRLPRPRPRPSFRPRP | -0.358 |
| RRIRLRPPRLPRPRPRPSHNPRP | -0.735 |
| RRIRQRPPRLPRPRPRPGIHPRP | 0.0177 |
| RRIRTRPPRLPRPRPRPACMPRP | 0.0444 |
| RRIRDRPPRLPRPRPRPHMFPRP | -0.0389 |
| RRIRPRPPRLPRPRPRPANLPRP | -0.12 |
| RRIRRRPPRLPRPRPRPDTNPRP | 1.31 |
| RRIRNRPPRLPRPRPRPCLTPRP | 0.0253 |
| RRIRARPPRLPRPRPRPNIDPRP | -0.0883 |
| RRIRHRPPRLPRPRPRPRNYPRP | -0.282 |
| RRIRNRPPRLPRPRPRPGVDPRP | -0.154 |
| RRIRSRPPRLPRPRPRPNCMPRP | -0.0954 |
| RRIRERPPRLPRPRPRPCWQPRP | -0.0429 |
| RRIRQRPPRLPRPRPRPSDSPRP | -0.0885 |

| Sequence | shrunken log2 fold change |
| --- | --- |
| RRIRPRPPRLPRPRPRPWKSPRP | 0.0643 |
| RRIRMRPPRLPRPRPRPHQCPRP | -0.0247 |
| RRIRGRPPRLPRPRPRPCILPRP | 0.0804 |
| RRIRPRPPRLPRPRPRPAHYPRP | 0.02 |
| RRIRKRPPRLPRPRPRPMFAPRP | 0.485 |
| RRIRPRPPRLPRPRPRPGNAPRP | 0.34 |
| RRIRIRPPRLPRPRPRPIERPRP | -0.0785 |
| RRIRMRPPRLPRPRPRPRRYPRP | 1.15 |
| RRIRYRPPRLPRPRPRPDVLPRP | 0.0494 |
| RRIRQRPPRLPRPRPRPWCNPRP | -0.00865 |
| RRIRHRPPRLPRPRPRPCTVPRP | -0.0523 |
| RRIRIRPPRLPRPRPRPKNSPRP | -0.503 |
| RRIRKRPPRLPRPRPRPIIVPRP | 0.0373 |
| RRIRPRPPRLPRPRPRPMHLPRP | -0.034 |
| RRIRGRPPRLPRPRPRPHTMPRP | -0.175 |
| RRIRTRPPRLPRPRPRPEQSPRP | 0.0803 |
| RRIRSRPPRLPRPRPRPCWNPRP | -0.296 |
| RRIRARPPRLPRPRPRPKNWPRP | 0.465 |
| RRIRPRPPRLPRPRPRPMNWPRP | -0.0482 |
| RRIRCRPPRLPRPRPRPRRPPRP | 0.654 |
| RRIRTRPPRLPRPRPRPEWEPRP | 0.0583 |
| RRIRWRPPRLPRPRPRPLQMPRP | 0.161 |
| RRIRPRPPRLPRPRPRPYQIPRP | -0.314 |
| RRIRIRPPRLPRPRPRPGNFPRP | -0.064 |
| RRIRPRPPRLPRPRPRPMTDPRP | 0.0653 |

| Sequence | shrunken log2 fold change |
| --- | --- |
| RRIRCRPPRLPRPRPRPPNKPRP | -0.0142 |
| RRIRIRPPRLPRPRPRPESQPRP | 0.0553 |
| RRIRGRPPRLPRPRPRPCKKPRP | 0.00863 |
| RRIRIRPPRLPRPRPRPAKIPRP | -0.176 |
| RRIRCRPPRLPRPRPRPMSIPRP | -0.484 |
| RRIRKRPPRLPRPRPRPDVQPRP | -0.00299 |
| RRIRQRPPRLPRPRPRPSSTPRP | -0.215 |
| RRIRERPPRLPRPRPRPFKWPRP | -0.0223 |
| RRIRLRPPRLPRPRPRPVKPPRP | 0.0377 |
| RRIRCRPPRLPRPRPRPAVAPRP | 0.137 |
| RRIRHRPPRLPRPRPRPNRRPRP | -0.00884 |
| RRIRTRPPRLPRPRPRPPQYPRP | -0.108 |
| RRIRCRPPRLPRPRPRPVAVPRP | -0.043 |
| RRIRNRPPRLPRPRPRPRVMPRP | 0.0236 |
| RRIRHRPPRLPRPRPRPYIPPRP | -0.194 |
| RRIRERPPRLPRPRPRPICMPRP | -0.309 |
| RRIRIRPPRLPRPRPRPIKCPRP | -0.446 |
| RRIRIRPPRLPRPRPRPMKFPRP | -0.387 |
| RRIRDRPPRLPRPRPRPVCFPRP | 0.599 |
| RRIRLRPPRLPRPRPRPWKFPRP | -0.00232 |
| RRIRLRPPRLPRPRPRPYPFPRP | -0.137 |
| RRIRYRPPRLPRPRPRPIRHPRP | 0.0879 |
| RRIRGRPPRLPRPRPRPCYPPRP | 0.0523 |
| RRIRIRPPRLPRPRPRPNCLPRP | -0.602 |
| RRIRHRPPRLPRPRPRPEIQPRP | -0.102 |
